US20260109758A1 (BIOSION, published 2026)

Biological target: T1, recombinant human IL4Rα-his (human, UniProt P24394 26-231, limits assumed, biotin-labeled in the capture ELISA)
T1 construct: In-house made; not shown: His tag at the C-terminus
Assay: capture ELISA: antibody captured on anti-human IgG Fc F(ab')2, biotin human IL4Rα-his, SA-HRP

B1: BSI-502-004 (bispecific antibody, human IgG1, kappa)
heavy: DIQMTQSPSSLSASVGDRVTITCRTSENIYSYLAWYQQKPGKAPKFLVYNAKTLAEGVPSRFSGSGSGTDFTLTISSLQPEDFATYYCQHYYGPPTWTFGQGTKVEIKGGGGSGGGGSGGGGSGGGGSEVQLVESGGGLVQPGGSLRLSCAASGFTFSTYGMSWVRQAPGKGLVWVATINSNGGSTSYPDSVKGRFTISRDNAKNTLYLQMNSLRAEDTAVYYCARFFRFRNAMDYWGQGTLVTVSSGGGGSGGGGSQVQLVQSGAEVKKPGASVKVSCKASGYTFTTYWMHWVRQAPGQGLEWMGVIDPSDSDTTYNQKFKGRVTMTRDTSTSTVYMELSSLRSEDTAVYYCTRSLDGYYDYWGQGTLVTVSSASTKGPSVFPLAPSSKSTSGGTAALGCLVKDYFPEPVTVSWNSGALTSGVHTFPAVLQSSGLYSLSSVVTVPSSSLGTQTYICNVNHKPSNTKVDKKVEPKSCDKTHTCPPCPAPEAQGGPSVFLFPPKPKDTLYITREPEVTCVVVDVSHEDPEVKFNWYVDGVEVHNAKTKPREEQYNSTYRVVSVLTVLHQDWLNGKEYKCQVSNKALPAPIEKTISKAKGQPREPQVYTLPPSRDELTKNQVSLTCLVKGFYPSDIAVEWESNGQPENNYKTTPPVLDSDGSFFLYSKLTVDKSRWQQGNVFSCSVMHEALHNHYTQKSLSLSPG
light: DIQMTQSPSSLSASVGDRVTITCRPTENIYSYLAWYQQKPGKAPKLLIYFARTLAEGVPSRFSGSGSGTDFTLTISSLQPEDFATYYCQHHYGTPWTFGGGTKVEIKRTVAAPSVFIFPPSDEQLKSGTASVVCLLNNFYPREAKVQWKVDNALQSGNSQESVTEQDSKDSTYSLSSTLTLSKADYEKHKVYACEVTHQGLSSPVTKSFNRGEC
notes: hu1C5F12E9-V8 IgG with an anti-IL4R scFv (VL-VH) at the N-terminus of the heavy chain; AQQ and YTE already stand in the entry
  EC50: 0.0346 nM
